Data published in article PMC9088798, “An Approach to Derive Functional Peptide Inhibitors of Transcription Factor Activity”.

Columns and labels:
HingeW = target: T1, HingeW (designed); test: CD (281 nm DNA peak); EMSA: 150 mM KCl, 1 mM DTT, 1 mM EDTA, 10 mM Tris, 10 mM MgCl2, pH 8, 4 C, 30 min; CD: buffer with TCEP, pH 7.4, 30 min (rest not in material); details: protein: recombinant; tags: N-terminal MAS, C-terminal GAP-His6; blunt
T1 chain: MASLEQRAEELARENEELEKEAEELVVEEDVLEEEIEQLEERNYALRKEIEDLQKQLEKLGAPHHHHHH

cJun bZIP = cJun bZIP (human, UniProt P05412); test: CD (281 nm DNA peak); 20 uM cJun, 5 uM DNA; DNA peak decreases by 55%; EMSA: 150 mM KCl, 1 mM DTT, 1 mM EDTA, 10 mM Tris, 10 mM MgCl2, pH 8, 4 C, 30 min; CD: buffer with TCEP, pH 7.4, 30 min (rest not in material); details: protein: recombinant; tags: C-terminal GAP; His-SUMO cleaved off; chain copies: 2; blunt
Chain of cJun bZIP (P05412 other isoform, or with tags, fused parts or gaps): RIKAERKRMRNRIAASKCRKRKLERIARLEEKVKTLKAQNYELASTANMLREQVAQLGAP

A-FosW = target: T2, A-FosW (designed); test: CD (281 nm DNA peak); 50 uM A-FosW, 5 uM DNA; EMSA: 150 mM KCl, 1 mM DTT, 1 mM EDTA, 10 mM Tris, 10 mM MgCl2, pH 8, 4 C, 30 min; CD: buffer with TCEP, pH 7.4, 30 min (rest not in material); details: protein: recombinant; tags: N-terminal MAS, C-terminal GAP-His6; blunt
T2 chain: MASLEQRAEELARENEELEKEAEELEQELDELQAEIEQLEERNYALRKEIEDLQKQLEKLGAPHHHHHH

B1: TRE DNA (dsDNA)
DNA 1: GTCAGTCAGTGACTCAATCGGTCA
DNA 2: TGACCGATTGAGTCACTGACTGAC
- binding result (HingeW): no binding
- binding result (cJun bZIP): binds
- binding result (A-FosW): no binding
